The values that follow come from the supplement of paper PMC7877785.

± gives the uncertainty stated by the source.

The data set can be described thus: self-splicing fitness, log relative to wild type (ln ratio); higher = more splicing; Tetrahymena group I intron in knt gene, E. coli kanamycin selection, DiMSum; sequences stand for … in CUCUCU…GGAGGGAAAAGUUAUCAGGCAUGCACCUGGUAGCUAGUCUUUAAACCAAUAGAUUGCAUCGGUUUAAAAGGCAAGACCGUCAAAUUGCGGGAAAGGGGUCAACAGCCGUUCAGUACCAAGUCUCAGGGGAAACUUUGAGAUGGCCUUGCAAAGGGUAUGGUAAUAAGCUGACGGACAUGGUCCUAACCACGCAGCCAAGUCCUAAGUCAACAGAUCUUCUGUUGAUAUGGAUGCAGUUCACAGACUAAAUGUCGGUCGGGGAAGAUGUAUUCUUCUCAUAAGAUAUAGUCGGACCUCUCCUUAAUGGGAGCUAGCGGAUGAAGUGAUGCAACACUGGAGCCGCUGGGAACUAAUUUGUAUGCGAAAGUAUAUUGAUUAGUUUUGGAGUACUCGUGGUCG
In outline:
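DiMSum derived fitness as the error-weighted combination of fold changes across replicates, kanamycin versus no kanamycin, normalised to wild type. E. coli BL21(DE3) held the library, which randomised all eight P1ex-region intron nucleotides within the knt kanamycin-resistance gene on pET-22b(+). Six replicate transformations grew overnight at 37°C or 30°C on LB agar with or without 25 μg/mL kanamycin, also containing 100 μg/mL carbenicillin, 50 μM IPTG and 0.2% rhamnose, and pooled colonies were amplicon-sequenced on an Illumina HiSeq 2500.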

For the sequence CGAGAGCAAUAUUACGUAUA, the “self-splicing fitness (ln)” value (30 °C) was -4.06 ± 0.36. Turning to CGAGAGCAAUAUUACGUAUU, the “self-splicing fitness (ln)” value is -2.53 ± 0.28 (30 °C) and -1.4 ± 0.28 (37 °C). For CGAGAGCAAUAUUACGUCUC, in that order: -3.03 ± 0.22 and -3.17 ± 0.35.

In the case of CGAGAGCAAUAUUACGUGGU, the “self-splicing fitness (ln)” value (37 °C) was -3.2 ± 0.37. In the case of CGAGAGCAAUAUUACGUUAU, the “self-splicing fitness (ln)” value is, setting by setting: (30 °C) -3.57 ± 0.28; (37 °C) -2.8 ± 0.28. For CGAGAGCAAUAUUACGUUGG, in that order: -3.78 ± 0.3 and -2.48 ± 0.22. For CGAUAGCAAUAUUACGACGA, in that order: -1.5 ± 0.17 and -0.547 ± 0.15. Consider CGAUAGCAAUAUUACGACGG, for which the “self-splicing fitness (ln)” value by setting is: (30 °C) 0.185 ± 0.098; (37 °C) 0.424 ± 0.14.

Consider CGAUAGCAAUAUUACGACGU, for which the “self-splicing fitness (ln)” value runs as follows: (30 °C) -0.903 ± 0.065; (37 °C) 0.0313 ± 0.07. Regarding CGAUAGCAAUAUUACGAGGU, the “self-splicing fitness (ln)” value was -2.8 ± 0.22 (30 °C) and -3.01 ± 0.34 (37 °C). For CGAUAGCAAUAUUACGAUGA, in that order: -1.8 ± 0.17 and -0.503 ± 0.2. Take CGAUAGCAAUAUUACGAUGC: the “self-splicing fitness (ln)” value was -4.1 ± 0.21 (30 °C) and -1.81 ± 0.15 (37 °C). For CGAUAGCAAUAUUACGCCCA, in that order: -1.46 ± 0.28 and 0.585 ± 0.16. For CGAUAGCAAUAUUACGCCGC, in that order: -3.37 ± 0.37 and -1.3 ± 0.47.

For the sequence CGAUAGCAAUAUUACGCGUU, the “self-splicing fitness (ln)” value is -3.13 ± 0.24 (30 °C) and -2.51 ± 0.22 (37 °C). For CGAUAGCAAUAUUACGGACG, in that order: -1 ± 0.085 and -0.734 ± 0.11. For CGAUAGCAAUAUUACGGAGA, in that order: -3.98 ± 0.42 and -2.4 ± 0.29. As to CGAUAGCAAUAUUACGGCAG, the “self-splicing fitness (ln)” value reads like this: (30 °C) -0.958 ± 0.087; (37 °C) -0.344 ± 0.12. For CGAUAGCAAUAUUACGGGAC, the “self-splicing fitness (ln)” value is -4.19 ± 0.36 (30 °C) and -2.42 ± 0.27 (37 °C). In the case of CGAUAGCAAUAUUACGGGUA, the “self-splicing fitness (ln)” value by setting is: (30 °C) -3.87 ± 0.4; (37 °C) -2.64 ± 0.2. For the sequence CGAUAGCAAUAUUACGGUGC, the “self-splicing fitness (ln)” value is -3.57 ± 0.3 (30 °C) and -2.23 ± 0.24 (37 °C).

Turning to CGAUAGCAAUAUUACGUAGA, the “self-splicing fitness (ln)” value is -3.31 ± 0.17 (30 °C) and -1.3 ± 0.13 (37 °C). CGAUAGCAAUAUUACGUAUU: the “self-splicing fitness (ln)” value was -3.53 ± 0.25 (30 °C) and -2.61 ± 0.24 (37 °C).

With CGAUAGCAAUAUUACGUGCG, the “self-splicing fitness (ln)” value by setting is: (30 °C) -2.23 ± 0.089; (37 °C) -1.04 ± 0.1. For CGCAAGCAAUAUUACGACAC, in that order: -2.89 ± 0.29 and -0.474 ± 0.22. Regarding CGCAAGCAAUAUUACGACUG, the “self-splicing fitness (ln)” value is -0.662 ± 0.097 (30 °C) and -0.47 ± 0.12 (37 °C).

For CGCAAGCAAUAUUACGAGCC, the “self-splicing fitness (ln)” value was -1.07 ± 0.095 (30 °C) and -0.349 ± 0.12 (37 °C). For CGCAAGCAAUAUUACGAUAG, in that order: -0.276 ± 0.066 and 0.36 ± 0.092. For the sequence CGCAAGCAAUAUUACGAUAU, the “self-splicing fitness (ln)” value (30 °C) was -2.7 ± 0.14 and the “self-splicing fitness (ln)” value (37 °C) was -1.91 ± 0.13.

For CGCAAGCAAUAUUACGCCAA, the “self-splicing fitness (ln)” value was -2.12 ± 0.27 (30 °C) and -3.03 ± 0.35 (37 °C). Consider CGCAAGCAAUAUUACGCGAU, for which the “self-splicing fitness (ln)” value (30 °C) is -3.15 ± 0.22 and the “self-splicing fitness (ln)” value (37 °C) was -3.83 ± 0.42. For CGCAAGCAAUAUUACGCGUU, in that order: -3.9 ± 0.15 and -2.86 ± 0.15. With CGCAAGCAAUAUUACGCUGC, the “self-splicing fitness (ln)” value (30 °C) is -2.59 ± 0.33 and the “self-splicing fitness (ln)” value (37 °C) is -2.41 ± 0.3. Consider CGCAAGCAAUAUUACGCUGU, for which the “self-splicing fitness (ln)” value is -3.81 ± 0.24 (30 °C) and -1.48 ± 0.16 (37 °C). For CGCAAGCAAUAUUACGGCCC, in that order: -1.17 ± 0.24 and -1.23 ± 0.26.

For CGCAAGCAAUAUUACGGCUA, the “self-splicing fitness (ln)” value was -1.15 ± 0.063 (30 °C) and -0.556 ± 0.076 (37 °C). For CGCAAGCAAUAUUACGGGAC, in that order: -3.18 ± 0.31 and -2.52 ± 0.29. In the case of CGCAAGCAAUAUUACGGGCC, the “self-splicing fitness (ln)” value was -1.55 ± 0.12 (30 °C) and -1.02 ± 0.17 (37 °C).
